Results reported in publication PMC5514376 (The Journal of investigative dermatology, 2016).

Target: the molecule itself
Assay: crystal structure

B1: keratin 1-keratin 10 helix 2B heterodimer (K1-K10-2B) (complex, human)
chain 1: ESLYQSKYEELQITAGRHGDSVRNSKIEISELNRVIQRLRSEIDNVKKQISNLQQSISDAEQRGENALKDAKNKLNDLEDALQQAKEDLARLLRDYQELMNTKLALDLEIATYRTLLEGE
chain 2: EAWFNEKSKELTTEIDNNIEQISSYKSEITELRRNVQALEIELQSQLALKQSLEASLAETEGRYCVQLSQIQAQISALEEQLQQIRAETECQNTEYQQLLDIKIRLENEIQTYRSLLEGE
Question: Does B1 bind?
Answer: Result: binds
